Experimental data as given in patent publication US20220267469A1 (LIPUM, published 2022).

T1: Human BSSL (bile salt-stimulated lipase), native (human, UniProt P19835 21-753)
T1 sequence: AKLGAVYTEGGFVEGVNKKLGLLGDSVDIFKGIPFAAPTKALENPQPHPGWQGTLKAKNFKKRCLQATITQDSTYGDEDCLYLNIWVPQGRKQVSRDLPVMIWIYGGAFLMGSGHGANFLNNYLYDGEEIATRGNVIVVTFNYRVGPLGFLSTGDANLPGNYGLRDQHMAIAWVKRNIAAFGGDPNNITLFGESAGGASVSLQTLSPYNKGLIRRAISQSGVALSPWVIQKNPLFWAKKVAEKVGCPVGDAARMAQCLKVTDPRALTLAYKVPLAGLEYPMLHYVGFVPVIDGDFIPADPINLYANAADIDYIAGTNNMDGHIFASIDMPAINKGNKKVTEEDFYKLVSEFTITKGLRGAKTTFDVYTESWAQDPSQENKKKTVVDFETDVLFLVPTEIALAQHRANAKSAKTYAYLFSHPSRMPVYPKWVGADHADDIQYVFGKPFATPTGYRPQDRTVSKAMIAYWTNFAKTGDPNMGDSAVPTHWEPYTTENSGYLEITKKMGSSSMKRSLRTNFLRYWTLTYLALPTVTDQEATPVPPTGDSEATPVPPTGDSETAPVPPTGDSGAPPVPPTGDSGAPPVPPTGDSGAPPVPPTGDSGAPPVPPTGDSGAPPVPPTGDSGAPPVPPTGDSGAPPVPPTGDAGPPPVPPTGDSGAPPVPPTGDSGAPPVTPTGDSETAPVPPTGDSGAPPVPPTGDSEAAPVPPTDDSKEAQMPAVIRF

T2: Mouse BSSL, recombinant (mouse, UniProt Q64285 21-599)
T2 construct: Bought (R&D Systems, Cat. no 5658-CE); also called mBSSL; murine BSSL
T2 sequence: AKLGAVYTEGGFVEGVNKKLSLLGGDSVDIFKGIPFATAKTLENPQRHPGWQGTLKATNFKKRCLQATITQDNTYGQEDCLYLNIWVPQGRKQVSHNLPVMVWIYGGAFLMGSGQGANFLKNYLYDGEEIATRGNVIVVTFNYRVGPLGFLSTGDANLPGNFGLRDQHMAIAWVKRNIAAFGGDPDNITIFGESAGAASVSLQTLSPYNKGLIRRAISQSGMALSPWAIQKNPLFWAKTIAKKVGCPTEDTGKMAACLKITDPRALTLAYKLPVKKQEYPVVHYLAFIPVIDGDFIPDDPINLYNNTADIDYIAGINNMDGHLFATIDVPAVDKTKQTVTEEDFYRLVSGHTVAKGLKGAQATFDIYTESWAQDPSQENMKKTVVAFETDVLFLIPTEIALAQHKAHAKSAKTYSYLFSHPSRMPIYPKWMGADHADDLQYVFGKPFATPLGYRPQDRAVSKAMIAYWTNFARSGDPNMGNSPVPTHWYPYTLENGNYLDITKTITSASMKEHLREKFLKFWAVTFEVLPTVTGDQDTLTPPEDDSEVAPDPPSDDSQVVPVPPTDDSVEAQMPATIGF

T3: Biotinylated human BSSL (human, UniProt P19835 21-753, Biotinylated on glycosacarides, 30-40 biotin/BSSL)
T3 construct: hBSSL biotinylated in house; also called b-hBSSL; human BSSL-biotin
T3 sequence: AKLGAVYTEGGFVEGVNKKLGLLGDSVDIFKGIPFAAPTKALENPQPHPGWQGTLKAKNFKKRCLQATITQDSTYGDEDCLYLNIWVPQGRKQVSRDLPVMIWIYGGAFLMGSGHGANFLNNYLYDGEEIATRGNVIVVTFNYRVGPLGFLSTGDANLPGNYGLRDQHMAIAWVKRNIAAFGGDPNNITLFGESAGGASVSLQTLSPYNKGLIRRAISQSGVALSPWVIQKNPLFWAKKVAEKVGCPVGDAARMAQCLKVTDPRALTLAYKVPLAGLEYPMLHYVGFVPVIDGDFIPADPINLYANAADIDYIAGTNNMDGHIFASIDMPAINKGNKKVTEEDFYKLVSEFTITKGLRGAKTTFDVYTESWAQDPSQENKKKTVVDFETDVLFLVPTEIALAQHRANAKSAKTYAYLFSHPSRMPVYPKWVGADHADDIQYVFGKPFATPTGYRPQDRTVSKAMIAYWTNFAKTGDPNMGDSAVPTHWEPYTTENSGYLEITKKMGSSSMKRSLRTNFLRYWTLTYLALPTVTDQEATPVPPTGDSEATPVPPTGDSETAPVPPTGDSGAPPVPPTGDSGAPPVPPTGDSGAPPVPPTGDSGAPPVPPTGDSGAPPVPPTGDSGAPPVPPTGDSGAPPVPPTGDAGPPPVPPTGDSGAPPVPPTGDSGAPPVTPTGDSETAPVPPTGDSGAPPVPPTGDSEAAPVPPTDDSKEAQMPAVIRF

B1: S-SL048-46 hIgG4 S228P (antibody, V domains shown)
VH: QVQLVQSGAEVKKPGASVKVSCKASGYTFTSYNMHWVRQAPGQGLEWMGVINPGDGATSYNQKFQGRVTMTRDTSTSTVYMELSSLRSEDTAVYYCARDYYGSSPLGYWGQGTLVTVSS
VL: DIQMTQSPSSLSASVGDRVTITCRASSSISYLNWYQQKPGKAPKLLIYAASSLASGVPSRFSGSGSGTDFTLTISSLQPEDFATYYCHQRSSSPTFGQGTKLEIKR
notes: also called clone 46; mAb46
B2: S-SL048-66 hIgG4 S228P (antibody, V domains shown)
VH: QVQLVQSGAEVKKPGASVKVSCKASGYTFTSYNMHWVRQAPGQGLEWMGVINPGDGATSYNQKFKGRVTMTRDTSTSTVYMELSSLRSEDTAVYYCARDYYGSSPLGYWGQGTLVTVSS
VL: DIQMTQSPSSLSASVGDRVTITCSASQSISYMNWYQQKPGKAPKLLIYDASSLASGVPSRFSGSGSGTDFTLTISSLQPEDFATYYCHQRSSTPTFGQGTKLEIK
notes: Tested as human IgG4 S228P
B3: S-SL048-116 hIgG4 S228P (antibody, V domains shown)
VH: QVQLVQSGAEVKKPGASVKVSCKASGYTFTSYNMHWVRQAPGQGLEWMGVINPGDGATSYAQKFKGRVTMTRDTSTSTVYMELSSLRSEDTAVYYCARDYYGSSPLGYWGQGTLVTVSS
VL: DIQMTQSPSSLSASVGDRVTITCRASPSISYMNWYQQKPGKAPKLLIYATSSLASGVPSRFSGSGSGTDFTLTISSLQPEDFATYYCHQRSSSPTFGQGTKLEIKR
notes: also called mAb116

Columns and labels:
[1] = biological target: T1, Human BSSL (bile salt-stimulated …); assay: cell-based or functional assay
[2] = biological target: T1, Human BSSL (bile salt-stimulated …); assay: cell-based or functional assay; remark: listed apart in the source
Mouse BSSL, recombinant [3] = biological target: T2, Mouse BSSL, recombinant; assay: SPR steady state, hIgG4 S228P captured by anti-Fab
How it was run: (§1)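 hIgG4 S228P captured on an immobilized anti-Fab surface; five BSSL concentrations injected, 1:5 dilutions from 50 nM (human) or from 500 nM (mouse). Human BSSL: single-cycle kinetics, 1:1 fit. Mouse BSSL: KD from steady-state equilibrium response versus concentration. Regeneration with 10 mM glycine-HCl pH 2.1.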

[4] = biological target: T1, Human BSSL (bile salt-stimulated …); assay: SPR single cycle kinetics, hIgG4 S228P captured by anti-Fab
How it was run: as §1

Mouse BSSL, recombinant [5] = biological target: T2, Mouse BSSL, recombinant; assay: SPR steady state, captured by anti-Fab, Absolute Antibody batch
Experimental: (§2) Kinetic parameters of the hIgG4 S228P clones were determined by SPR using BIACORE® T200 (GE Healthcare). An anti-Fab antibody (GE #28958325) was immobilized on a CM5 S sensor chip by primary amine coupling using NHS-EDC chemistry. The hIgG4 antibodies were captured by the anti-Fab antibody, and subsequently, five different concentrations of hBSSL (1:5 dilutions, 0.08-50 nM) or mBSSL (1:2 dilutions, 50-800 nM) were injected over the surface. The sensor chip surface was regenerated with 10 mM glycine-HCl pH 2.1. For binding to human BSSL, single cycle kinetic data was fitted to a 1:1 binding model and kinetic parameters were retrieved using software BlAevaluation. For mouse BSSL, a steady state analysis was performed by plotting the response level at equilibrium against each concentration, and KD values were retrieved by the BlAevalution software.

Biotinylated human BSSL [6] = biological target: T3, Biotinylated human BSSL; assay: flow cytometry displacement assay; 1.5 ug antibody, 1 ug b-hBSSL
How it was run: (§3)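 Antibody (0.5–3.0 μg per reaction) preincubated with 1 μg biotinylated human BSSL in PBS pH 7.4, 30 min at 4 °C, then with human buffy coat 30 min at 4 °C. After erythrocyte lysis/fixation, bound BSSL on CD14+ monocytes detected by labelled streptavidin via flow cytometry.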

Biotinylated human BSSL [7] = biological target: T3, Biotinylated human BSSL; assay: flow cytometry displacement assay; 3.0 ug antibody, 1 ug b-hBSSL
How it was run: as §3

[8] = biological target: T1, Human BSSL (bile salt-stimulated …); assay: SPR single cycle kinetics, captured by anti-Fab, Absolute Antibody batch
Experimental: as §2

Biotinylated human BSSL [9] = biological target: T3, Biotinylated human BSSL; assay: flow cytometry displacement assay; 0.5 ug antibody, 1 ug b-hBSSL
Experimental: (§4) The 28 BSSL-specific hIgG4 antibodies and the five reference antibodies at different concentrations (ranging from 0.5 μg to 3.0 μg per reaction; see Table 10) were added to b-hBSSL (1 μg per reaction, see Table 2) in round-bottom polystyrene tubes, lx PBS (pH 7.4) was added to a final volume of 20 μl and the antibody/b-hBSSL mixtures were incubated for 30 min. at +4° C. to facilitate binding of antibodies to BSSL. Buffy coat (50 μl) was then added to each antibody/b-hBSSL mixture and incubation continued for another 30 min at +4° C. Thereafter, 2 ml of FACS lysing solution (BD Biosciences) was added and the cells were incubated for 10 min at room temperature in order to lyse erythrocytes and fix the white blood cells. The cells were then centrifuged for 5 min. at 200×g, the resulting pellets were washed by adding 2 ml of FACS buffer (1×PBS supplemented with 1% FCS and 0.1% NaN3) and centrifuged again. Finally, the supernatants were discarded and the cells were resuspended in the last drop of liquid, approximately 50 μl.
(§5) 5 μl of BV421-labelled anti-human CD14 (BD Biosciences) and 5 μl of BB515-labelled streptavidin (BD Biosciences) was added to each tube and incubated for 30 min, at +4° C., protected from light. Thereafter, cells were washed twice with FACS buffer, resuspended in 500 μl FACS buffer, and run on BD LSRII flow cytometer (BD Biosciences). Finally, data were analyzed using FlowJo software (BD Biosciences).

Biotinylated human BSSL [10] = biological target: T3, Biotinylated human BSSL; assay: flow cytometry displacement assay; 1.0 ug antibody, 1 ug b-hBSSL
Experimental: as §4, §5

Biotinylated human BSSL [11] = biological target: T3, Biotinylated human BSSL; assay: flow cytometry displacement assay; 2.0 ug antibody, 1 ug b-hBSSL
Experimental: as §4, §5

| Binder | BSSL hydrolysis of triglycerides, relative value (no antibody = 100%); 0.19 ug antibody [1] | BSSL hydrolysis of triglycerides, relative value (no antibody = 100%); 0.38 ug antibody [1] | BSSL hydrolysis of triglycerides, relative value (no antibody = 100%); 0.75 ug antibody [1] | BSSL hydrolysis of triglycerides, relative value (no antibody = 100%); 1.5 ug antibody [1] | BSSL hydrolysis of triglycerides, relative value (no antibody = 100%); 3.0 ug antibody [1] | BSSL hydrolysis of triglycerides, relative value (no antibody = 100%); 6.0 ug antibody [1] | BSSL hydrolysis of cholesterol esters, relative value (no antibody = 100%); 0.19 ug antibody [2] | BSSL hydrolysis of cholesterol esters, relative value (no antibody = 100%); 0.38 ug antibody [2] | BSSL hydrolysis of cholesterol esters, relative value (no antibody = 100%); 0.75 ug antibody [2] | BSSL hydrolysis of cholesterol esters, relative value (no antibody = 100%); 1.5 ug antibody [2] | BSSL hydrolysis of cholesterol esters, relative value (no antibody = 100%); 3.0 ug antibody [2] | BSSL hydrolysis of cholesterol esters, relative value (no antibody = 100%); 6.0 ug antibody [2] | Kd (Mouse BSSL, recombinant [3]) | Kd [4] | Kd (Mouse BSSL, recombinant [5]) | percentage reduction of b-hBSSL binding to CD14+ monocytes (Biotinylated human BSSL [6]) | percentage reduction of b-hBSSL binding to CD14+ monocytes (Biotinylated human BSSL [7]) | Kd [8] | also measured |
| --- | --- | --- | --- | --- | --- | --- | --- | --- | --- | --- | --- | --- | --- | --- | --- | --- | --- | --- | --- |
| B1 | 105% | 123% | 121% | 113% | 119% | 126% | 95.7% | 99% | 97.6% | 88.3% | 93.5% | 97.7% | 24 nM | 3.7 nM | 55 nM | 43% | 61% | 3.8 nM |  |
| B2 |  |  |  |  |  |  |  |  |  |  |  |  | 83 nM | 8 nM |  | 39% | 51% |  | percentage reduction of b-hBSSL binding to CD14+ monocytes (Biotinylated human BSSL [9]): 12%; percentage reduction of b-hBSSL binding to CD14+ monocytes (Biotinylated human BSSL [10]): 12%; percentage reduction of b-hBSSL binding to CD14+ monocytes (Biotinylated human BSSL [11]): 43% |
| B3 | 105% | 112% | 100% | 96.2% | 106% | 108% | 104% | 107% | 102% | 103% | 107% | 107% | 52 nM | 0.6 nM | 40 nM | 58% | 64% | 0.5 nM |  |
